Laboratory results from US7642046B2, “Method for monitoring recruitment of proteins to the intracellular domain of a receptor in intact cells” (priority 2001, dated 2010).

Tests used:
Format in all cases: cell-based
CD40 mutants [1] = biological target: T1, CD40 mutants (Homo sapiens, UniProt P25942, E235A); assay: Recruitment assay in intact cells with CD40 mutants (deletions or point mutations in TRAF binding sites); settings: E235A plus deletion of PXQXT254 motif
T1 construct: expressed in transfected cells; host or cells: 293T
Experimental: (§1) The lysates were cleared by centrifugation at 15000 G at 4° C. in a micro-centrifuge, 3 fold serially diluted (with lysis buffer containing 1% bovine serum albumin) and then every diluted sample incubated for 2 hours at room temperature (or overnight) in wells of ELISA microtiter plates coated with a mAb (Ro1) specific to the CD40 extra-cellular domain (Schwabe et al. 1997). For control purposes, instead of the wild type CD40 plasmid, a plasmid encoding a CD40 mutant lacking the entire signaling domain was used for transfection and transient expression (CD401-222, FIG. 1B). Following incubation exhaustive washes were carried out on the microtiter plates to remove any unbound protein [about 10 washing steps with PBS containing 0.05% Tween 20) PBS/Tween)]. To detect bound TRAF1, anti TRAF1 specific antibodies were loaded into the plates, incubated for about 3 hours at room temperature, […] by extensive washes to remove unbound antibody and detecting the bound antibody with an HRP conjugated secondary antibody. All antibodies (except when used as solid phase antibody) were diluted in PBS/Tween containing 1% BSA.
(§2) The recruitment of TRAF to CD40 can be quantitatively measured using the assay described in example 1. For that purpose, the assay conditions were adjusted in such a way that TRAF expression was in significant excess over the expression of CD40. This was the case when the TRAF expression plasmid was used at a two to three fold excess over the CD40 expression plasmid. The CD40 bound TRAF concentration was measured as described in example 1. A reference extract containing CD40/TRAF complexes served as a standard in each assay. This standard extract consisted of a large pool extract from cells that had been co-transfected with the plasmids encoding CD40/TRAF1, CD40/TRAF2, CD40/TRAF3, CD40/TRAF5 and CD40/TRAF6. The extracts were tested for the presence of CD40/TRAF complexes and the complex concentrations in each extract were arbitrarily defined as 1000 U/ml. The extracts were frozen in small aliquots and kept at −80° C. until further use. By comparing unknown samples to these extracts, it was possible to determine the relative CD40-TRAF complex concentrations in arbitrary units. The necessary normalization for sample-to-sample variations in the CD40 expression was calculated with the following formula: […]
(§3) The quantitative version of the TRAF recruitment assay as described in example 3 was used to compare CD40 and various CD40 mutants with respect to their TRAF recruitment behaviour. TRAF 1, 2, 3, 5 and 6 were examined. […] Additional deletion of the TRAF1/2/3/5 binding motif PXQXT254 at amino acid position 250 to 254 reduced the binding of all 5 TRAFs test to background levels (1-254EA in FIG. 3B). […]

LTβR = biological target: T2, LTβR (Homo sapiens, UniProt P25942+P36941); assay: Recruitment assay with hybrid receptor (CD40 extracellular domain, LTβR transmembrane and intracellular domain); settings: 293T cells, CD40 as relative standard
T2 construct: cDNA fragments encoding for the transmembrane and cytoplasmic domains of the LTβR, TACI, the p75TNF receptor, CD27; expressed in transfected cells; host or cells: 293T
Experimental: as §2
Recruitment of various TRAFs to receptors different to CD40, was tested by the recruitment assay described in example 1 by transforming cells with expression plasmids encoding hybrids receptors comprising the extracellular domain of CD40 and transmembrane and intracellular domain of anyone of the following receptors: BCMA (Madry et al. 1998 and Hatzoglou et al. 2000) the LTβR-receptor (Mosialos et al. 1995, Crowe et al. 1994, Nakano et al. 1996), TACI (von Bulow et al. 1997, Xia et al. 2000) the p75TNFR (Rothe et al. 1994) and the CD27 (Gravestein et al. 1998, Akiba et al. 1998) (for details of constructs see example 7). Measurement of TRAF recruitment to the signalling domains of BCMA the LTβR-receptor TACI the p75TNFR or the CD27 was carried out by co-transfecting 293T cells with a plasmid encoding anyone of the above hybrid receptors together with a plasmid encoding TRAF and measurement of the TRAF/Receptor complex using the ELISA sandwich described in example 1 and the quantitation as described in example 3. The assay with the hybrid receptors is schematically represented in FIG. 4A. The results shown in FIG. 4B indicate that, using the assay monitoring recruitment in intact cells, any TRAF recruiting receptor of the TNF/NGF family can be examined with the same antibody sandwich assay described in example 1 and the amount of TRAF-receptor/CD40 hybrid complex can be monitored as described in example 3. […] Recruitment of TRAF3 to all the receptors tested is similar. […]

CD40 mutants [2] = biological target: T3, CD40 mutants (Homo sapiens, UniProt P25942); assay: Recruitment assay in intact cells with CD40 mutants (deletions or point mutations in TRAF binding sites); settings: CD40-222 (CD40 1-222) control, 293T cells
T3 construct: expressed in transfected cells; host or cells: 293T
Experimental: as §1, §2, §3

T2 sequence (P25942+P36941 fused): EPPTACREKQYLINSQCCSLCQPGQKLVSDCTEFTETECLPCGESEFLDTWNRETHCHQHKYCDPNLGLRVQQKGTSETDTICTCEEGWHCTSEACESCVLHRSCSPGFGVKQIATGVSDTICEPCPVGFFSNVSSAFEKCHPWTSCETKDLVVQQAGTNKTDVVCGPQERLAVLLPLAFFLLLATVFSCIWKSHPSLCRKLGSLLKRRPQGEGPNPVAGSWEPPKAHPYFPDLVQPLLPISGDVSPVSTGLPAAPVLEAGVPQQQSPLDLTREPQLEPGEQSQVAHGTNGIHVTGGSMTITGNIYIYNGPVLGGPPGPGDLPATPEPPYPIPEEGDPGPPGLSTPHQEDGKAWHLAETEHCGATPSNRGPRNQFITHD
T3 sequence (P25942 21-222, stated change not applied): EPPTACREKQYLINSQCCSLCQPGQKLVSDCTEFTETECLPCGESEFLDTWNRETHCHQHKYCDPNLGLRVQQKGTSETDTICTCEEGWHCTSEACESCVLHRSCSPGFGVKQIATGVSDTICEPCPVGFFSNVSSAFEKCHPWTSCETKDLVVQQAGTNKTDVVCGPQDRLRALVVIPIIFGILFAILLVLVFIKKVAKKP
T1 sequence (P25942 21-245 E235A): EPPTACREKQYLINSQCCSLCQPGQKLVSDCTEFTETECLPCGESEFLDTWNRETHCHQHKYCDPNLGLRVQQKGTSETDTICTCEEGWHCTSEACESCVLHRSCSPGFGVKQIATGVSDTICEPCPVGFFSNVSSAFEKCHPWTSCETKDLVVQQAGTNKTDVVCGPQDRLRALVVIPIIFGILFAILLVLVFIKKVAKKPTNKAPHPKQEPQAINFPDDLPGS

binding to CD40 mutant 1-254EA (CD40 mutants [1]) | recruitment to LTβR, folds higher than recruitment to CD40 (LTβR) | recruitment to signalling-domain-deficient CD40 mutant (CD40 mutants [2]) | Molecule
did not bind | about 60 fold | – | TRAF2: TNF receptor associated factor 2, human adaptor protein expressed from pcDNA3 (protein, UniProt Q12933 1-501, looked up, full-length, TNF receptor associated factor 2, human adaptor protein expressed from pcDNA3) MAAASVTPPGSLELLQPGFSKTLLGTKLEAKYLCSACRNVLRRPFQAQCGHRYCSFCLASILSSGPQNCAACVHEGIYEEGISILESSSAFPDNAARREVESLPAVCPSDGCTWKGTLKEYESCHEGRCPLMLTECPACKGLVRLGEKERHLEHECPERSLSCRHCRAPCCGADVKAHHEVCPKFPLTCDGCGKKKIPREKFQDHVKTCGKCRVPCRFHAIGCLETVEGEKQQEHEVQWLREHLAMLLSSVLEAKPLLGDQSHAGSELLQRCESLEKKTATFENIVCVLNREVERVAMTAEACSRQHRLDQDKIEALSSKVQQLERSIGLKDLAMADLEQKVLEMEASTYDGVFIWKISDFARKRQEAVAGRIPAIFSPAFYTSRYGYKMCLRIYLNGDGTGRGTHLSLFFVVMKGPNDALLRWPFNQKVTLMLLDQNNREHVIDAFRPDVTSSSFQRPVNDMNIASGCPLFCPVSKMEAKNSYVRDDAIFIKAIVDLTGL
– | 25 fold | undetectable | TRAF1: TNF receptor associated factor 1, adaptor protein overexpressed in 293T cells from pcDNA3 (protein, UniProt Q13077 1-416, looked up, full-length, TNF receptor associated factor 1, adaptor protein overexpressed in 293T cells from pcDNA3) MASSSGSSPRPAPDENEFPFGCPPTVCQDPKEPRALCCAGCLSENPRNGEDQICPKCRGEDLQSISPGSRLRTQEKAHPEVAEAGIGCPFAGVGCSFKGSPQSVQEHEVTSQTSHLNLLLGFMKQWKARLGCGLESGPMALEQNLSDLQLQAAVEVAGDLEVDCYRAPCSESQEELALQHFMKEKLLAELEGKLRVFENIVAVLNKEVEASHLALATSIHQSQLDRERILSLEQRVVELQQTLAQKDQALGKLEQSLRLMEEASFDGTFLWKITNVTRRCHESACGRTVSLFSPAFYTAKYGYKLCLRLYLNGDGTGKRTHLSLFIVIMRGEYDALLPWPFRNKVTFMLLDQNNREHAIDAFRPDLSSASFQRPQSETNVASGCPLFFPLSKLQSPKHAYVKDDTMFLKCIVETST
